This series in a line: soluble fraction after stress (log2 fold change); higher = more stays soluble; pooled small domains, quantitative proteomics. The following applies: stress: pH 4. An outline of the steps: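 Aggregation propensity here comes from the fold change in the soluble amount of each small protein domain after acid stress, measured in pooled custom libraries by high-throughput quantitative proteomics. The acid stress was pH 4. On the log2 scale, higher values mean more of the domain stayed soluble.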
Consider “HMRLADHVVEKLLALVQERGLQPGQKLPAERQLAEVLGVSRTSVREAIQKLVSQGVLSARRGDGTYVQS”, for which the “soluble fraction (log2)” value is 0.0683.

As to “HMRLANGIGTVYKLSGNRRNPYIVRKTTGWEIDEESGKAKQKYITIGYAPTRAKGLEMLMDYNKNP”, the “soluble fraction (log2)” value turned out to be 0.22.

In the case of “HMRLDHIFSVVERLKGVSLGAGDRLEVQKYEDLLTVYKSKNALSSEEAQTLNDILASLLKMMAKYD”, the “soluble fraction (log2)” value was -0.54.

As to “HMRLDSELVSARLHRFMGTNRKPDGEIVEKIAAILEGHPIETLDAFLQSLNGRKIKSYGFFPTVLRREIAN”, the “soluble fraction (log2)” value was -0.114.

Take “HMRLEEVSVPQRLLAAIAEEREVQIGIVDGRGGTRVLRVEPLALEGGRLRARDVESGEEFTVLIHRVLL”: the “soluble fraction (log2)” value was -0.809.

Take “HMRLLAESIARGLDPEGSGGLWAKEAGAEALKLMETLAAEAPHGGSFTAAAYRDLFESLVHQGEVREA”: the “soluble fraction (log2)” value was -0.335.

For the sequence “HMRLLGEPLAGRLKKDVPVVTGRSTESKAIAQFFELRWSHLPDPEARTISVASGRIDFMDVGATRFSLR”, the “soluble fraction (log2)” value came out at 0.124.

Take “HMRLSDSEFESIENAIKEKLENSALTADVLVKELSFDEDKIWKVIRWLEDAEKISEDEAGTLLWKPR”: the “soluble fraction (log2)” value is -0.76.

Take “HMRLSESLLDDIPGIGAARKRALLQSFGSVRKLRHADAEEIAAKVPGIGLNFAEKIVEALRKK”: the “soluble fraction (log2)” value came to 0.187.

Take “HMRLTTTPKTARGLTTMNRIIRAAEVEFGRKGYHYTGITDIAQRAKVASGTIYLYFTDKYSLYVHLLT”: the “soluble fraction (log2)” value stood at 0.17.

Turning to “HMRLYTQDVAVLNRDVIQGEVITSDMVTTVNVHKRTVPTGALNLSEIPGNVAKFNIPASIPITASMVTK”, the “soluble fraction (log2)” value is -0.171.

Turning to “HMRMLLKELLIQYEVKNDKSHVEVAKEVGVSLSTYYRWLNGESLHLKKRTIDRLSEVLHYDINQVVEES”, the “soluble fraction (log2)” value was 0.0267.

For the sequence “HMRMLSEGAQRMLRGLAVLEEASADRLLELHQGDYPGFVRSLFALESAGLFQRNGSGTWIRR”, the “soluble fraction (log2)” value is -0.996.

As to “HMRMNASERQNQIVDLLSQNGVMKIMDIADHFNVSRETIRRDLIILEDDNRIKKWFGGVISAN”, the “soluble fraction (log2)” value was -0.219.

As for “HMRMQRYYLTDMSEKGREALPGVLDEMGYAGRYTMSDNSIAINSNMIVLSKAIKRAEDIAHNE”, the “soluble fraction (log2)” value is -0.148.

As for “HMRMRPNERQKRIIELLSFRRHETIGNFANEFGVSRDTIKRDIITLQEEYPIISERGYEGGISLPDGYYI”, the “soluble fraction (log2)” value was -0.0594.

On to “HMRMSLDEAKAVVLPIGEYKGRNMGEVLAIKPELIDFYASQKFNSSKYPYLKEAAQVILENQ”, for which the “soluble fraction (log2)” value was found to be 0.0219.

With “HMRMSPRERKIYQFIENHPGTKSGEMAEKLGIPLPTIKRLLSDMVASKLLQKHGTGAGTNYSIEE”, the “soluble fraction (log2)” value was at least 0.43.

Take “HMRMSQLSRLISILTLLKSKRLLTATELAEKYDVSIRTVYRDIRKLEEAGIPVYTIEGRGYSLMDNYT”: the “soluble fraction (log2)” value was -0.299.

Regarding “HMRNANENTLKDLPVAVPNIHVSNIEEKKDFHLIQLEYSQEFDPREDLFNFAVNSSWVILKMTPT”, the “soluble fraction (log2)” value was at least 0.43.

On to “HMRNDIFDQLTEREMQILQEVAKGYRNKQIADHLFISESTVKVHMKSLLKKLQVPSRTAATVLYLERYG”, for which the “soluble fraction (log2)” value was -0.406.

For the sequence “HMRNEFEAHSDGTRIQLNDRSKATFSVYDVQGRLIHSFQDFSGSSFNIEPKNQLLIITRETAEGVSVKKLV”, the “soluble fraction (log2)” value is -0.322.

Regarding “HMRNKTVKEVLDYIEKNSEFIFFYYSKAIDTKRIVSLSVKDQPITVILDQLFKNTDVLYEIKDRQISLKRE”, the “soluble fraction (log2)” value was -0.508.

For the sequence “HMRNTETMKEIQAFVEDYFFEYHQSPSMQKVADAIGTSKSTAYYYVMEMARNGMLHYDGKTIETPHTQKS”, the “soluble fraction (log2)” value is 0.285.

As for “HMRPDDPYLVIGASREMGDEELKRHYRRLVAETHPDRGIARGLPAEAIAIATRRLAAINAAWDAIERERGL”, the “soluble fraction (log2)” value was -0.158.

Take “HMRPDSFEAGEAEAGSRLDRLLAARLGIPRNQVQQWIGGGRVTVDAEPVRASLVVRAGMRIAWDPPPPP”: the “soluble fraction (log2)” value was 0.0905.

As to “HMRPEKLVLKALRGAHGPLSAEEVAGRIEADGGAGLDVARVEHVLGQLERSGTVAALGGGKYLALR”, the “soluble fraction (log2)” value came out at 0.123.

“HMRPHDDHLREQLLGIATETIARTGVEGLSLRTLATDAGTSTSAVYQLFGSRAALLDAVYLRVLE”: the “soluble fraction (log2)” value was -0.733.
